In patent publication US6645934B1, “Peptide with radio protective effect” (Eberhard-Karls-Universität Tübingen, priority 1997, dated 2003):
Bridges are numbered along the chain shown (N, C = ends).

Tests used:
[1] = target: TLCK-treated chymotrypsin (Bos taurus, UniProt P00766); test: Protease inhibition test, chymotrypsin; assay type: biochemical
Experimental: (§1) A batch containing 50 μl TLCK-treated chymotrypsin (0.1 mg/ml) was incubated for 10 minutes in 12.5% DMSO and 87.5% PBS with 50 μl of a solution having BBI (BBI), reduced BBI (BBI-R), or reduced and alkylated BBI (BBI-A) together with 50 μl PBS and 50 μl of the chymotrypsin substrate acetyl-A-A-P-F-pNa (0.5 mg/ml, of Bachem Heidelberg, Germany). The colored reaction product was detected at 405 nm in a spectrophotometer.
A batch without BBI (0) was run as control, and its measured value was taken as 100% chymotrypsin activity (% CH). The blank value with buffer alone is labeled “-” and indicates the cuvette and buffer solution background.

human skin fibroblasts = test: Clonogenic assay with human skin fibroblasts under UV-B irradiation; assay type: cell-based; details: UV-B radiation at 100 J/m^2, FIG. 6; for effect on clonogenic survival compared with complete BBI / effect on clonogenic survival, further increase over that of complete BBI: peptides 80 μM vs BBI 10 μM; for increase in clonogenic survival of the human skin fibroblasts compared to the untreated cells: BBI 10 μM, peptides 80 μM
Experimental: (§2) Normal human fibroblasts were cultivated in Dulbecco's Modified Eagles Medium (DMEM) with 10% fetal calf serum under standard conditions. At each cell passage the number of cells was counted, and the cells were seed with a density of 2×10^4/cm^2 when subcultures were set up.
(§3) For the clonogenic assay, secondary fibroblasts were trypsinated with 0.05% trypsin and 0.1 EDTA, and seed at a cell density of 50 cells per cm^2 into six-well tissue culture dishes. The cells were cultivated with 2 ml DMEM with 20% fetal calf serum per well.
(§4) After 24 hours the medium was removed and the cells were incubated for 16 hours either in additive-free control mediums (“0” in the Figures) or in medium that contained 10 μM of either BBI or a modified BBI form or a BBI fragment. The nonapeptides and heptapeptide according to the present invention (see Example 3) were used at a concentration of 80 μM.
(§5) The cells were then cultivated for a further eight days in BBI-free culture medium in order to allow colonies to form. The cells were then fixed, stained, and counted; in the Figures, “K” indicates the absolute number of clones counted.
(§6) A clone is a colony or a cell cluster resulting from the division of one cell during the eight-day cultivation period. The number of clones corresponds to the degree to which the human fibroblasts survived the irradiation. This will therefore also be referred to hereinafter as the “clonogenic survival” of the cells. If many cells die when the cells are irradiated, then only a few clones will form after eight days; if many cells survive, then many clones may be counted after eight days of cultivation. The clonogenic survival of the cells after irradiation is thus a direct indication of the radioprotective effect of the BBI product being used.
Once again a clonogenic assay was performed, using complete BBI or the four peptides P1 through P4.
In this case irradiation was performed with UV-B radiation at 100 J/m^2.

TPCK-treated trypsin = target: T1, TPCK-treated trypsin (Bos taurus, UniProt P00760); test: Protease inhibition test, trypsin; assay type: biochemical; details: FIG. 8
T1 sequence (P00760 24-246): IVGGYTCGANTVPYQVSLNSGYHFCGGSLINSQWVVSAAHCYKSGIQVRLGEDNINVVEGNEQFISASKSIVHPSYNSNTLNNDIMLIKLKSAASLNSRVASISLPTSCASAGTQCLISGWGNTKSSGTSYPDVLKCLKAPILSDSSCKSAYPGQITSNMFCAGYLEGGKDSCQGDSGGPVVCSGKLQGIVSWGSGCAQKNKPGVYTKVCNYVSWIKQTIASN
Experimental: as §1
If inhibition of the protease trypsin (see Example 4, FIG. 8) was to be determined, TPCK-treated trypsin (0.1 mg/ml) and the peptide CBZ-R-pNa (1 mg/ml) as substrate were used, and the test was otherwise performed as described.

Normal human fibroblasts [2] = test: Clonogenic assay with normal human fibroblasts under ionizing radiation; assay type: cell-based; details: for radioprotective effect compared with complete BBI and the other peptides (clonogenic assay): single dose of 4 Gy, peptides 80 μM, complete BBI 10 μM, FIG. 5; for influence on survival of the cells without irradiation (clonogenic assay): 0 Gy, 10 μM, 16 h incubation, FIG. 1
Experimental: The examination of the radioprotective effect of BBI and of modified forms of BBI was performed as a so-called clonogenic assay, which is described, for example, in K. Dittmann et al., Radiotherapy and Oncology 34 (1995), pages 137-143, and is explained briefly below.
as §2, §3, §4
This was followed by irradiation with ionizing radiation, the energy dose being either 2 or 4 gray (Gy). This energy dose corresponds to the entire converted radiation energy given in mass unit Joule/kg=(gray). A 6 MeV linear accelerator (Mevatron, Siemens) was used for irradiation.
as §5, §6

[3] = target: chymotrypsin (TLCK-treated); test: cell-based or functional assay
trypsin (TPCK-treated) = test: cell-based or functional assay
Normal human fibroblasts [4] = details: publication of Dittmann et al.; cited from earlier work
[5] = FIG. 2, control without BBI = 100% chymotrypsin activity

## Peptide P1: nonapeptide SEQ ID NO: 1, terminal cysteine residues crosslinked with a disulfide bond; acetyl and amide protective groups (Ac-CALSYPAQC-NH2; disulfide 1-9; SMILES CC(=O)N[C@H]1CSSC[C@@H](C(N)=O)NC(=O)[C@H](CCC(N)=O)NC(=O)[C@H](C)NC(=O)[C@@H]2CCCN2C(=O)[C@H](Cc2ccc(O)cc2)NC(=O)[C@H](CO)NC(=O)[C@H](CC(C)C)NC(=O)[C@H](C)NC1=O)
[1]; 0.1 mM, FIG. 7
  inhibition of chymotrypsin activity: only a few percent or not at all
Human skin fibroblasts
  effect on clonogenic survival compared with complete BBI: just as pronounced an effect as the addition of complete BBI
TPCK-treated trypsin; 0.1 mM
  inhibition of the activity of trypsin: no effect on the activity of trypsin
Normal human fibroblasts [2]
  radioprotective effect compared with complete BBI and the other peptides (clonogenic assay): even more pronounced radioprotective effect than peptides P2 (heptapeptide) and P4

## Peptide P2: heptapeptide SEQ ID NO: 3, no cysteine residues, linear; acetyl and amide protective groups (Ac-ALSYPAQ-NH2)
[1]; 0.1 mM, FIG. 7
  inhibition of chymotrypsin activity: only a few percent or not at all
Human skin fibroblasts
  effect on clonogenic survival, further increase over that of complete BBI: 20%
TPCK-treated trypsin; 0.1 mM
  inhibition of the activity of trypsin: no effect on the activity of trypsin

## Peptide P3: nonapeptide SEQ ID NO: 1, terminal cysteine residues not crosslinked; acetyl and amide protective groups (Ac-CALSYPAQC-NH2; cysteine pairing not given here)
[1]; 0.1 mM, FIG. 7
  inhibition of chymotrypsin activity: only a few percent or not at all
Human skin fibroblasts
  effect on clonogenic survival, further increase over that of complete BBI: 20%
TPCK-treated trypsin; 0.1 mM
  inhibition of the activity of trypsin: no effect on the activity of trypsin
Normal human fibroblasts [2]
  radioprotective effect compared with complete BBI and the other peptides (clonogenic assay): even more pronounced radioprotective effect than peptides P2 (heptapeptide) and P4

## Peptide P4: nonapeptide SEQ ID NO: 2 (serine to valine exchange), terminal cysteines not crosslinked; acetyl and amide protective groups (Ac-CALVYPAQC-NH2; cysteine pairing not given here)
[1]; 0.1 mM, FIG. 7
  inhibition of chymotrypsin activity: only a few percent or not at all
Human skin fibroblasts
  increase in clonogenic survival of the human skin fibroblasts compared to the untreated cells: significantly increased
  effect on clonogenic survival compared with complete BBI: less of an effect than complete BBI
TPCK-treated trypsin; 0.1 mM
  inhibition of the activity of trypsin: no effect on the activity of trypsin

B1: Bowman-Birk Protease Inhibitor (BBI), complete (protein, soybean, UniProt P01055 40-110, looked up)
chain: DDESSKPCCDQCACTKSNPPQCRCSDMRLNSCHSACKSCICALSYPAQCFCVDITDFCYEPCKPSEDDKEN
[3]
  inhibition of chymotrypsin activity (substrate acetyl-A-A-P-F-pNa, 405 nm): 80%
  inhibition of chymotrypsin activity at 0.05 mM BBI: 80%
  inhibition of chymotrypsin activity at 0.1 mM BBI: 90%
Trypsin (TPCK-treated)
  inhibition of trypsin activity at 0.05 mM BBI (substrate CBZ-R-pNa): > 90%
  inhibition of trypsin activity at 0.1 mM BBI (substrate CBZ-R-pNa): > 90%

B2: Bowman-Birk Protease Inhibitor (protein)
chain: DDESSKPCCDQCACTKSNPPQCRCSDMRLNSCHSACKSCICALSYPAQCFCVDITDFCYEPCKPSEDDKEN
notes: complete BBI (from Sigma Biochemicals)
[1]; 0.05 mM, FIG. 7
  inhibition of chymotrypsin activity: 80%
[1]; 0.1 mM, FIG. 7
  inhibition of chymotrypsin activity: 90%
[1]; [5]
  inhibition of chymotrypsin activity: 80%
Human skin fibroblasts
  increase in clonogenic survival of the human skin fibroblasts compared to the untreated cells: approximately 40%
Normal human fibroblasts [4]
  radiation-induced mortality of cultivated human fibroblasts: decreases the radiation-induced mortality
TPCK-treated trypsin; 0.05 mM
  inhibition of the activity of trypsin: more than 90%
TPCK-treated trypsin; 0.1 mM
  inhibition of the activity of trypsin: more than 90%
Normal human fibroblasts [2]
  influence on survival of the cells without irradiation (clonogenic assay): does not influence survival of the cells within experimental error

B3: BBI-A: BBI first reduced, cysteine residues then alkylated with iodoacetamide to prevent reoxidation (protein)
chain: DDESSKPCCDQCACTKSNPPQCRCSDMRLNSCHSACKSCICALSYPAQCFCVDITDFCYEPCKPSEDDKEN
[1]; [5]
  inhibition of chymotrypsin activity: no longer capable of inhibiting chymotrypsin activity
Normal human fibroblasts [2]
  influence on survival of the cells without irradiation (clonogenic assay): does not influence survival of the cells within experimental error

B4: BBI-R: complete BBI pretreated with the reducing agent dithiothreitol (DTT), so that all the disulfide bonds were cleaved (protein)
chain: DDESSKPCCDQCACTKSNPPQCRCSDMRLNSCHSACKSCICALSYPAQCFCVDITDFCYEPCKPSEDDKEN
modifications: cyclised or stapled
notes: complete BBI pretreated with the reducing agent dithiothreitol (DTT), so that all the disulfide bonds were cleaved
[1]; [5]
  inhibition of chymotrypsin activity: about 30%
Normal human fibroblasts [2]
  influence on survival of the cells without irradiation (clonogenic assay): does not influence survival of the cells within experimental error

B5: reduced BBI (BBI-R) (protein, soybean, UniProt P01055 40-110, looked up)
chain: DDESSKPCCDQCACTKSNPPQCRCSDMRLNSCHSACKSCICALSYPAQCFCVDITDFCYEPCKPSEDDKEN
modifications: pretreated with dithiothreitol (DTT) so that all the disulfide bonds in the BBI were cleaved (cysteines reduced)
[3]
  inhibition of chymotrypsin activity (substrate acetyl-A-A-P-F-pNa, 405 nm): 30%
